# Measured values: patent US20230242592A1, “IDENTIFICATION OF […] PEPTIDES AND USES THEREOF” (priority 2020, published 2023)
# Legend:
# [1] = target: interaction between RBD and the neutralizing antibody (Severe acute respiratory syndrome coronavirus 2, UniProt P0DTC2); details: read-out: IC50 of inhibiting interaction between RBD and the neutralizing antibody
# ACE2-HEK293 cells = test: Trypan blue toxicity in ACE2-HEK293 cells in the presence of virus; details: different concentrations; viability ca. 50%
# SARS-CoV-2 spike RBD = SARS-CoV-2 spike RBD (Severe acute respiratory syndrome coronavirus 2, UniProt P0DTC2)
# [2] = test system: SARS-CoV-2 spike protein pseudotyped lentivirus; test: SARS-CoV-2 spike pseudotyped lentivirus infection of ACE2-HEK293 cells (luciferase); format: cell-based; details: 0.33 uM
substance,measurement,setting,value
ACE2,IC50,[1],30 to 35 nM
same,change in cell viability in the presence of virus,ACE2-HEK293 cells,did not result in statistically significant changes in cell viability
same,"RMax, binding to RBD",SARS-CoV-2 spike RBD,0.5785 ± 0.01557
same,Kd,SARS-CoV-2 spike RBD; read-out: dissociation constant / binding affinity with RBD,~3 nM
same,inhibition of pseudotyped virus infection,[2],virtually complete inhibition
